T1: GST-fused SCRM (1-494) (Arabidopsis thaliana, UniProt Q9LSE2 1-494)
T1 construct: SCREAM (SCRM, also known as ICE1), Arabidopsis thaliana, At3G26744, residues 1-494; pGEX-4T-1 with thrombin site; GST kept because the protein was loaded on anti-GST probes for BLI; also called SCREAM; ICE1; source: E. coli BL21, purified (glutathione agarose resin); not shown: GST, N-terminal, kept
T1 sequence (looked up): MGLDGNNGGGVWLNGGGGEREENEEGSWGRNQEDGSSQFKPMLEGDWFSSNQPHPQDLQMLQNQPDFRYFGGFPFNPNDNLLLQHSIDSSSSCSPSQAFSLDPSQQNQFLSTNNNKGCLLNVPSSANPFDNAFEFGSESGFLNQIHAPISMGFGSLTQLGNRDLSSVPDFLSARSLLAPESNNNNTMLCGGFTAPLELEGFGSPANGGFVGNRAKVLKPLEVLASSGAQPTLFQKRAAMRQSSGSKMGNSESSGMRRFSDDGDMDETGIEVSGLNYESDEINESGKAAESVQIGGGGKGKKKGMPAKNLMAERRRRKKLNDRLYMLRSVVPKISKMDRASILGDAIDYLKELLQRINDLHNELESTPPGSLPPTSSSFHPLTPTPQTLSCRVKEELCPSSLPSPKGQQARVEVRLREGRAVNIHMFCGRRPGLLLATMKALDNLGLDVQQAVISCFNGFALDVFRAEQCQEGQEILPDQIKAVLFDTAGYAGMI

T2: GST-fused SCRMΔC (1-404) (Arabidopsis thaliana, UniProt Q9LSE2 1-404)
T2 construct: SCREAM (SCRM, ICE1), Arabidopsis thaliana, At3G26744, residues 1-404 (lacks the C-terminal ACTL domain); pGEX-4T-1; GST kept because the protein was loaded on anti-GST probes for BLI; also called SCRM1ΔC; source: E. coli BL21, purified (glutathione agarose resin); not shown: GST, N-terminal, kept
T2 sequence (looked up): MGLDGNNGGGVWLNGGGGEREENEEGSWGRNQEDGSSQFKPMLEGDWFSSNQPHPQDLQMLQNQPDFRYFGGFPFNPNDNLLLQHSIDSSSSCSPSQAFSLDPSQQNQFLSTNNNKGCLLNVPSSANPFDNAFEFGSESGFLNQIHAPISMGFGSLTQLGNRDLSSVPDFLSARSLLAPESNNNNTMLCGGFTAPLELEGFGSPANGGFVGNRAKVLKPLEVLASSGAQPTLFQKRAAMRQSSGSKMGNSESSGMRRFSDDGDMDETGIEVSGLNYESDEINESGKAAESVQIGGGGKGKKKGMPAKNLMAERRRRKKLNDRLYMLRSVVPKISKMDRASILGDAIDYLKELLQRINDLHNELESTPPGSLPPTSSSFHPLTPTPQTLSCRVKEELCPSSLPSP

B1: MUTE (1-202) (natural protein, Arabidopsis thaliana, UniProt Q9M8K6 1-202, looked up)
chain: MSHIAVERNRRRQMNEHLKSLRSLTPCFYIKRGDQASIIGGVIEFIKELQQLVQVLESKKRRKTLNRPSFPYDHQTIEPSSLGAATTRVPFSRIENVMTTSTFKEVGACCNSPHANVEAKISGSNVVLRVVSRRIVGQLVKIISVLEKLSFQVLHLNISSMEETVLYFFVVKIGLECHLSLEELTLEVQKSFVSDEVIVSTN
notes: MUTE, Arabidopsis thaliana, residues 1-202; MUTE (1-202) was made both as a GST fusion (pGEX-4T-1, thrombin-cleavable) and with an N-terminal His tag (pET28a); also called MUTE-HIS; MUTE-histag; source: E. coli BL21, purified (Ni-NTA or glutathione resin, Superdex-200)
B2: FAMA (ΔNFAMA) (domain or fragment)
chain: ESQRMTHIAVERNRRKQMNEHLRVLRSLMPGSYVQRGDQASIIGGAIEFVRELEQLLQCLESQKRRRILGETGRDMTTTTTSSSSPITTVANQAQPLIITGNVTELEGGGGLREETAENKSCLADVEVKLLGFDAMIKILSRRRPGQLIKTIAALEDLHLSILHTNITTMEQTVLYSFNVKITSETRFTAEDIASSIQQIFSFIHANTNISGSSNLGNIVFT
modifications: Limits not printed. Start set by analogy with the printed ΔNSPCH 98-364 (one residue before the annotated bHLH). Runs to the native C-terminus. Tag or fusion carrier omitted.
B3: SPCH (ΔNSPCH, 98-364) (domain or fragment, Arabidopsis thaliana, UniProt Q700C7 98-364, looked up)
chain: GQQKMSHVTVERNRRKQMNEHLTVLRSLMPCFYVKRGDQASIIGGVVEYISELQQVLQSLEAKKQRKTYAEVLSPRVVPSPRPSPPVLSPRKPPLSPRINHHQIHHHLLLPPISPRTPQPTSPYRAIPPQLPLIPQPPLRSYSSLASCSSLGDPPPYSPASSSSSPSVSSNHESSVINELVANSKSALADVEVKFSGANVLLKTVSHKIPGQVMKIIAALEDLALEILQVNINTVDETMLNSFTIKIGIECQLSAEELAQQIQQTFC
notes: the only recombinant SPCH with bHLH domain that the methods list is ΔNSPCH (98-364); source: E. coli BL21, purified (glutathione resin, thrombin, Superdex-200); not shown: GST, N-terminal, cleaved
B4: SCRMΔC (1-404), GST removed (domain or fragment, Arabidopsis thaliana, UniProt Q9LSE2 1-404, looked up)
chain: T2 sequence (looked up)
notes: SCREAM (SCRM, ICE1), Arabidopsis thaliana, At3G26744, residues 1-404 (lacks the C-terminal ACTL domain); Used for ITC; the methods tell thrombin cleavage of the GST-fused proteins in general, not for ITC by name; also called SCRM1ΔC; source: E. coli BL21, purified (glutathione resin, thrombin, Superdex-200); not shown: GST, N-terminal, cleaved

What was measured:
[1] = biological target: GST-fused SCRMΔC (1-404) (Arabidopsis thaliana) (UniProt Q9LSE2); experiment: BLI; as a1, samples incubated 30 min with a 1:4 molar ratio of the synthetic E-box repeat fragment; analyte 200-3.125 nM or 1000-25 nM
GST-fused SCRM (1-494) [2] = biological target: T1, GST-fused SCRM (1-494); experiment: as above; conditions: both partners purified
[3] = biological target: GST-fused SCRMΔC (1-404) (Arabidopsis thaliana) (UniProt Q9LSE2); experiment: BLI; as a1, samples incubated 30 min with a 1:4 molar ratio of the TMM promoter fragment containing the E-box; analyte 200-3.125 nM or 1000-25 nM
GST-fused SCRM (1-494) [4] = biological target: T1, GST-fused SCRM (1-494); experiment: as above; conditions: both partners purified
GST-fused SCRM (1-494) [5] = biological target: T1, GST-fused SCRM (1-494); experiment: BLI; as a1, samples incubated 30 min with a 1:4 molar ratio of the TMM promoter fragment containing a mutant E-box (control); analyte 200-3.125 nM or 1000-25 nM; conditions: both partners purified
GST-fused SCRM (1-494) [6] = biological target: T1, GST-fused SCRM (1-494); experiment: BLI; Octet Red96; anti-GST probes loaded with 500 nM GST-SCRM or GST-SCRMΔC; SPCH/MUTE/FAMA as analyte at 200-3.12 nM; 30 °C; 1x PBS, 0.02% Tween 20; no DNA; 1:1 model for kon, koff and KD, steady-state analysis for KD (SS); conditions: both partners purified
GST-fused SCRMΔC (1-404) [7] = biological target: T2, GST-fused SCRMΔC (1-404); experiment: BLI; as a1, samples incubated 30 min with a 1:4 molar ratio of the synthetic E-box repeat fragment; analyte 200-3.125 nM or 1000-25 nM; conditions: both partners purified
GST-fused SCRMΔC (1-404) [8] = biological target: T2, GST-fused SCRMΔC (1-404); experiment: BLI; as a1, samples incubated 30 min with a 1:4 molar ratio of the TMM promoter fragment containing the E-box; analyte 200-3.125 nM or 1000-25 nM; conditions: both partners purified
GST-fused SCRMΔC (1-404) [9] = biological target: T2, GST-fused SCRMΔC (1-404); experiment: BLI; as a1, samples incubated 30 min with a 1:4 molar ratio of the TMM promoter fragment containing a mutant E-box (control); analyte 200-3.125 nM or 1000-25 nM; conditions: both partners purified
[10] = biological target: B4; experiment: ITC; Malvern PEAQ-ITC; 40 µM SCRM/SCRMΔC injected into 4 µM SPCH/MUTE/FAMA; PBS, pH 7.2 (Table S1; methods: pH 7.4); 25 °C; single binding site model; means of two experiments; conditions: both partners purified
GST-fused SCRMΔC (1-404) [11] = biological target: T2, GST-fused SCRMΔC (1-404); experiment: BLI; Octet Red96; anti-GST probes loaded with 500 nM GST-SCRM or GST-SCRMΔC; SPCH/MUTE/FAMA as analyte at 200-3.12 nM; 30 °C; 1x PBS, 0.02% Tween 20; no DNA; 1:1 model for kon, koff and KD, steady-state analysis for KD (SS); conditions: both partners purified
SPCH (ΔNSPCH, 98-364) = biological target: B3; experiment: ITC; Malvern PEAQ-ITC; 40 µM SCRM/SCRMΔC injected into 4 µM SPCH/MUTE/FAMA; PBS, pH 7.2 (Table S1; methods: pH 7.4); 25 °C; single binding site model; means of two experiments; conditions: both partners purified
FAMA (ΔNFAMA) = biological target: B2; experiment: as above; conditions: both partners purified

Kd (GST-fused SCRM (1-494) [2]) [nM]	koff (GST-fused SCRM (1-494) [2]) [s⁻¹]	kon (GST-fused SCRM (1-494) [2]) [M⁻¹ s⁻¹]	Kd (GST-fused SCRM (1-494) [4]) [nM]	koff (GST-fused SCRM (1-494) [4]) [s⁻¹]	kon (GST-fused SCRM (1-494) [4]) [M⁻¹ s⁻¹]	Kd (GST-fused SCRM (1-494) [5]) [nM]	koff (GST-fused SCRM (1-494) [5]) [s⁻¹]	kon (GST-fused SCRM (1-494) [5]) [M⁻¹ s⁻¹]	Kd (GST-fused SCRM (1-494) [6]) [nM]	koff (GST-fused SCRM (1-494) [6]) [s⁻¹]	kon (GST-fused SCRM (1-494) [6]) [M⁻¹ s⁻¹]	Kd (GST-fused SCRMΔC (1-404) [7]) [nM]	koff (GST-fused SCRMΔC (1-404) [7]) [s⁻¹]	kon (GST-fused SCRMΔC (1-404) [7]) [M⁻¹ s⁻¹]	Kd (GST-fused SCRMΔC (1-404) [8]) [nM]	koff (GST-fused SCRMΔC (1-404) [8]) [s⁻¹]	kon (GST-fused SCRMΔC (1-404) [8]) [M⁻¹ s⁻¹]	Kd (GST-fused SCRMΔC (1-404) [9]) [nM]	koff (GST-fused SCRMΔC (1-404) [9]) [s⁻¹]	Binder	further results
5.1 ± 0.3	0.000285	56200	7.3 ± 0.2	0.000286	39200	11.1 ± 0.8	0.00023	20800	6.1 ± 0.5	0.000147	24200	–	–	–	–	–	–	–	–	B1	Kd [1]: 545 nM; koff [1]: 0.0017 s⁻¹; kon [1]: 3100 M⁻¹ s⁻¹; Kd [3]: 565 nM; koff [3]: 0.0016 s⁻¹; kon [3]: 2850 M⁻¹ s⁻¹
8.5 ± 0.7	0.000367	43200	9.2 ± 0.3	0.000395	43200	15.5 ± 0.6	0.000282	18200	7.2 ± 0.5	0.000159	22200	59.1 ± 1.3	0.00023	3910	68.3 ± 1.4	0.000263	3910	85 ± 1.8	0.000221	B2	kon (GST-fused SCRMΔC (1-404) [9]): 2610 M⁻¹ s⁻¹; Kd [10]: 68.1 ± 5.2 nM; Kd (GST-fused SCRMΔC (1-404) [11]): 55.1 ± 1.3 nM; koff (GST-fused SCRMΔC (1-404) [11]): 0.00016 s⁻¹; kon (GST-fused SCRMΔC (1-404) [11]): 2910 M⁻¹ s⁻¹
7.2 ± 0.4	0.000354	49200	3.9 ± 0.3	0.000153	39200	6.8 ± 0.5	0.000144	21200	5.8 ± 0.5	0.000111	19200	38.1 ± 1.9	0.000184	4850	49 ± 1.3	0.000208	4250	78.2 ± 1.2	0.000183	B3	kon (GST-fused SCRMΔC (1-404) [9]): 2350 M⁻¹ s⁻¹; Kd [10]: 61.1 ± 4.2 nM; Kd (GST-fused SCRMΔC (1-404) [11]): 59.1 ± 1.3 nM; koff (GST-fused SCRMΔC (1-404) [11]): 0.00012 s⁻¹; kon (GST-fused SCRMΔC (1-404) [11]): 2050 M⁻¹ s⁻¹
–	–	–	–	–	–	–	–	–	–	–	–	–	–	–	–	–	–	–	–	B4	stoichiometry N (SPCH (ΔNSPCH, 98-364)): 0.95; stoichiometry N (FAMA (ΔNFAMA)): 0.96
